In PMC4624675 (2015):

Biological target: C-terminal Tandem UBL domain of human USP7 (TUD^USP7), wild type (human)
Assay: ITC

C-terminal Tandem UBL domain of human USP7 (TUD^USP7), wild type (human), sequence (chain, as listed by the source): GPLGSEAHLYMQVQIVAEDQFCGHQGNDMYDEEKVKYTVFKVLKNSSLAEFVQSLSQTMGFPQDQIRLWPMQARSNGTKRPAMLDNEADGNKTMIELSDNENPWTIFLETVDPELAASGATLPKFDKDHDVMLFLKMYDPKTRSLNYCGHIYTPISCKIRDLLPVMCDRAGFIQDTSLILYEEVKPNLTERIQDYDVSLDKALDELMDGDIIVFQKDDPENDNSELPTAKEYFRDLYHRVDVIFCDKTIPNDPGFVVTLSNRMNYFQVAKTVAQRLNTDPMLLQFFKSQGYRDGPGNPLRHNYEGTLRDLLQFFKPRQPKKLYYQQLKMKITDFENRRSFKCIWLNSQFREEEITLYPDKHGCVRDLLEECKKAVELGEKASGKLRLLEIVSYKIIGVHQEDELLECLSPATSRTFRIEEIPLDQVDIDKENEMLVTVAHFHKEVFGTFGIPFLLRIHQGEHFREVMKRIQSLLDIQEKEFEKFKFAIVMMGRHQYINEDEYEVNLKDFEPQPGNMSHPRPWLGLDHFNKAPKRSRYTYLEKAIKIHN

Binder	Kd
TGKGKWKRKSAGGGPSRAGSPRRTSKKTKVEPY [UHRF1 (642–674) (GST pull-down bait)]	1540 nM
SGPRGPRKCARKTRHAETSGA [GST-tagged ICP0 (613–633), wild type]	270 nM
KGKGKGKGKGKP [KG-Linker of DNMT1 (GST pull-down bait)]	3720 nM
